The test system of one assay is human monocytes. Briefly: Calcium flux in human monocytes. Format: cell-based. To be noted: for calcium flux: human monocytes, Example 8; for calcium release: freshly prepared human monocytes, up to 250 nM. The procedure: Ca^2+ mobilization responses were performed using the intracellular ratiometric fluorescent dye, lndo-1. Cells were loaded with Indo-1/AM (3 μM; Molecular Probes, Eugene, Oreg.) in culture medium (45 min, 20° C., 10^7 cells/ml). After dye loading, cells were washed once with 10 ml PBS) and resuspended at 10^6 cell/ml in HBSS containing 1% FBS. Cytosolic [Ca^2+] release was determined using excitation at 350 nm using a Photon Technology International fluorimeter (excitation at 350 nm, ratioed dual emission at 400 and 490 nm).
The human recombinant chemokines, leukotactin, MlP-1α, three known CKβ8 variants CKβ8(1-99), CKβ8(25-99), CKβ8-1(1-116) and a novel NH2-terminal truncated form of CKβ8-1, CKβ8-1 (25-116) were obtained from R&D Systems (Minneapolis, Minn.). Human monocytes were generated from buffy coats (Stanford Blood Center, Palo Alto, Calif.) following a standard protocol. Briefly, PBMC were isolated by standard density gradient centrifugation (Ficoll-Paque-Plus, Pharmacia). Monocytes were purified using CD14 Microbeads (Miltenyi, Auburn, Calif.) magnetic positive selection. Human neutrophils were isolated from fresh peripheral blood from healthy individuals by gradient centrifugation on Ficoll-Hypaque (Hyclone, Calif.).
The activity of the CCL23 variants was tested on freshly prepared human monocytes and neutrophils using the calcium flux test described in Example 1.
Human monocytes were either generated from buffy coats (Stanford Blood Center, Palo Also, Calif.) or from fresh blood of healthy individuals following a standard protocol. Briefly, PBMC were isolated by a Ficoll-Paque gradient centrifugation (Ficoll-Paque-Plus, Pharmacia). Monocytes were purified by CD14 Microbeads (Miltenyi) magnetic positive selection. Human neutrophils were isolated from fresh blood by dextran sedimentation and gradient centrifugation Ficoll-Paque gradient centrifugation. All cells were washed and resuspended (1×10^7/ml) in RPMI medium with 10% FBS.
(§1) Ca^2+ mobilization responses were performed using an intracellular ratiometric fluorescent dye, Indo-1. Cells were loaded with Indo-1/AM (3 μM; Molecular Probes (Eugene, Oreg.)) in culture medium (45 min, 20° C., 10^7 cells/mi). After dye loading, cells were washed once (10 ml PBS) and resuspended at 10^6 cell/ml in HBSS containing 1% FBS. Cytosolic [Ca^2+] release was determined using excitation at 350 nm using a Photon Technology International fluorimeter (excitation at 350 nm, ratioed dual emission at 400 and 490 nm).
On the technique in general: Calcium flux is commonly read through the fluorescence of an indicator in the cells.

Another assay has as its system immature Dendritic Cells. Briefly: Calcium mobilization, immature dendritic cells. Format: cell-based, human. The procedure: (§2) Human recombinant CKβ8-1(25-116) chemokine was obtained from R&D Systems (Minneapolis, Minn.). The peptide SHAAGtides SEQ ID NO:1 and SEQ ID NO:6 and a control protein (the reverse sequence of SEQ ID NO:1) were synthesized and HPLC-purified using routine techniques as described in Sambrook et al., 1989, and Ausubel et al., 1999.
(§3) Immature DCs were derived by culturing CD14+ monocytes in the presence of GM-CSF and IL4. Briefly, monocytes were cultured in a T-175 flask at 10^6 cells/ml in RPMI/10% FCS. Recombinant human GM-CSF and IL4 were added on day 0, 2, 4 and 6 to a final concentration of 1000 u/ml and 500 u/ml, respectively. Cells were harvested on day 7 as immature DCs and characterized for surface protein expression by FACS analysis. DC maturation was carried out by culturing day 6 immature DCs in macrophage-conditioned medium (MCM). Briefly, day 6 immature DCs were harvested by centrifugation and resuspended in MCM at 10^6 cells/ml. The medium was supplemented with 1000 u/ml of GM-CSF and 500 u/ml IL4. After three more days of culture, cells were harvested as mature DCs and characterized by surface protein expression flow cytometry.
as §1

The next assay has as its system mature Dendritic Cells. Briefly: Calcium mobilization, mature dendritic cells. The format is cell-based, human. The procedure: as §2, §3
MCM was prepared as follows: PBMCs isolated from buffy coat were incubated at 37° C. in a plastic flask pre-coated with 10 mg/ml human IgG (Sigma, St Louis, Mo.) for 30 minutes. After 30 minutes, non-adherent cells were removed and adherent cells were washed three times with DPBS, then cultured in RPMI/10% human serum. Conditioned-medium was collected after 24 hours. TNF-α concentration, which is critical for DC maturation, was determined by using a TNF-α ELISA kit (R&D Systems, Minn.). The final TNF-α level in MCM was adjusted to 50 u/mi by mixing with RPMI/10% human serum, and was stored at −80 freezer until use.
as §1

Assay [1] deals with monocytes. Briefly: Cross-desensitization with leukotactin, monocytes. Format: cell-based, human. The procedure: In cross-desensitization tests tests, cells were stimulated sequentially with leukotactin and then the chemokines CKβ8(1-99), CKβ8(25-99), CKβ8-1(1-116), and CKβ8-1(25-116). On HEK293-CCR1 transfectants (prepared as in Example 1), leukotactin induced similar patterns of receptor desensitization to all variants.
Similar receptor cross-desensitization tests were performed using both monocytes and neutrophils (prepared as in Example 2).

The target in assay [2] is monocytes. Briefly: 125I-MIP-1α binding competition, monocytes. The arrangement: species or system human. Particulars: for IC50: Monocytes; for MIP-1α displacement on monocytes compared with HEK293-CCR1 cells: comparison in words. The procedure: The binding characteristics of CCL23 variants was compared in human CCR1 expressing cells. The ability of MIP-1α and the CCL23 variants CKβ8(1-99), CKβ8(25-99), CKβ8-1(1-116) and CKβ8-1(25-116) to compete with ^125I-MIP-1α binding was investigated in HEK293-CCR1 cells (prepared as in Example 1). The cells were incubated with ^125I-labeled MIP-1α (final conc. {dot over (˜)}0.05 nM) in the presence of unlabeled chemokine (3 hours at 4° C.: 25 mM HEPES, 140 mM NaCl, 1 mM CaCl2, 5 mM MgCl2 and 0.2% BSA, adjusted to pH 7.1). Reactions mixtures were aspirated onto PEI-treated GF/B glass filters using a cell harvester (Packard). The filters were washed twice (25 mM HEPES, 500 mM NaCl, 1 mM CaCl2, 5 mM MgCl2, adjusted to pH 7.1). Scintillant (MicroScint-10; 35 μl) was added to dried filters and the filiters counted in a Packard Topcount scintillation counter. Data were analyzed and plotted using Prism software (GraphPad Software, San Diego, Calif.).
Simiar binding competition tests were conducted on monocytes and neutrophils. These cells were prepared as in Example 2.

The source of these data is US8637043B2, “Compositions useful as ligands for the formyl peptide receptor like 1 receptor and methods of use thereof” (Chemocentryx, Inc., priority 2001, dated 2014).

“And” between values parts separate entries of the source, which are not always exact repeats. Equal values may be shown once. Read-outs that look alike come from different tables or passages of the source. Ends that are not written are not given here.

MLWRRKIGPQMTLSHAAY [SEQ ID NO: 6]: the calcium flux result with human monocytes is reported as “robust calcium flux”; in the assay with immature Dendritic Cells, “partially active”; in the assay with mature Dendritic Cells, “partially active”.
As to MLWRRKIGPQMTLSHAAG [SEQ ID NO: 1], the values for the calcium flux entry in the assay on human monocytes, with immature Dendritic Cells and with mature Dendritic Cells were “robust calcium flux”, “partially active” and “partially active”, respectively.

B1: CKβ8-1(25-116): novel NH2-terminal truncated form of CKβ8-1, SEQ ID NO: 16, human recombinant chemokine (protein, listed as Homo sapiens)
chain: MLWRRKIGPQMTLSHAAGFHATSADCCISYTPRSIPCSLLESYFETNSECSKPGVIFLTKKGRRFCANPSDKQVQVCMRMLKLDTRIKTRKN
With B1, the calcium release result in the assay with human monocytes is reported as “unique calcium flux with extended calcium release”. For the same molecule, the calcium flux entry in the assay on human monocytes is recorded as “robust calcium flux”; in the assay on immature Dendritic Cells it was “induces Ca^2+ release”; in the assay with immature Dendritic Cells (listed as CKβ8-1 (25-116)) it was “partially active”; with mature Dendritic Cells, “partially active”. In the assay on human monocytes (monocytes, 100 nM), the “maximal receptor stimulation compared with leukotactin” value is given as “at least two fold higher”. In the assay with monocytes [1], the “desensitization by leukotactin prestimulation” value (“desensitization” below) was “did not desensitize”. Moreover, on monocytes [2], the IC50 is 5 nM and 5.1 nM. Besides, the “MIP-1α displacement on monocytes compared with HEK293-CCR1 cells” value in the assay with monocytes [2] was “higher MIP-1α displacement activities”. The “MIP-1α displacement activity on monocytes versus HEK293-CCR1 cells” value in the assay with monocytes [2] (fold higher on monocytes) was “over 10 fold”.

B2: CKβ8(25-99): known truncated CKβ8 variant, human recombinant chemokine from R&D Systems (protein, listed as Homo sapiens)
chain: RFHATSADCCISYTPRSIPCSLLESYFETNSECSKPGVIFLTKKGRRFCANPSDKQVQVCMRMLKLDTRIKTRKN
On to B2, for which, in the assay with human monocytes, the calcium release result is given as “slightly higher calcium stimulation”. Besides, the “desensitization” value in the assay on monocytes [1] is reported as “completely desensitized”. Besides, the IC50 at monocytes [2] worked out at 0.25 nM.

B3: CKβ8-1(1-116): alternatively spliced form of CKβ8, 116 amino acids, human recombinant chemokine (protein, listed as Homo sapiens)
chain: RVTKDAETEFMMSKLPLENPVLLDMLWRRKIGPQMTLSHAAGFHATSADCCISYTPRSIPCSLLESYFETNSECSKPGVIFLTKKGRRFCANPSDKQVQVCMRMLKLDTRIKTRKN
Consider B3, for which, in the assay on human monocytes, the calcium release result was “poor activity”. The “desensitization” value in the assay with monocytes [1] was “completely desensitized”. Also, on monocytes [2], the IC50 is 55 nM and the “MIP-1α displacement on monocytes compared with HEK293-CCR1 cells” value is given as “higher MIP-1α displacement activities”.

In general, IC50 refers to the concentration needed to halve the response being measured.
